Values of other authors, collected in publication PMC4716630.

Biological target: hMSH2 (Homo sapiens) (UniProt P43246)
Sequence (P43246 2-934): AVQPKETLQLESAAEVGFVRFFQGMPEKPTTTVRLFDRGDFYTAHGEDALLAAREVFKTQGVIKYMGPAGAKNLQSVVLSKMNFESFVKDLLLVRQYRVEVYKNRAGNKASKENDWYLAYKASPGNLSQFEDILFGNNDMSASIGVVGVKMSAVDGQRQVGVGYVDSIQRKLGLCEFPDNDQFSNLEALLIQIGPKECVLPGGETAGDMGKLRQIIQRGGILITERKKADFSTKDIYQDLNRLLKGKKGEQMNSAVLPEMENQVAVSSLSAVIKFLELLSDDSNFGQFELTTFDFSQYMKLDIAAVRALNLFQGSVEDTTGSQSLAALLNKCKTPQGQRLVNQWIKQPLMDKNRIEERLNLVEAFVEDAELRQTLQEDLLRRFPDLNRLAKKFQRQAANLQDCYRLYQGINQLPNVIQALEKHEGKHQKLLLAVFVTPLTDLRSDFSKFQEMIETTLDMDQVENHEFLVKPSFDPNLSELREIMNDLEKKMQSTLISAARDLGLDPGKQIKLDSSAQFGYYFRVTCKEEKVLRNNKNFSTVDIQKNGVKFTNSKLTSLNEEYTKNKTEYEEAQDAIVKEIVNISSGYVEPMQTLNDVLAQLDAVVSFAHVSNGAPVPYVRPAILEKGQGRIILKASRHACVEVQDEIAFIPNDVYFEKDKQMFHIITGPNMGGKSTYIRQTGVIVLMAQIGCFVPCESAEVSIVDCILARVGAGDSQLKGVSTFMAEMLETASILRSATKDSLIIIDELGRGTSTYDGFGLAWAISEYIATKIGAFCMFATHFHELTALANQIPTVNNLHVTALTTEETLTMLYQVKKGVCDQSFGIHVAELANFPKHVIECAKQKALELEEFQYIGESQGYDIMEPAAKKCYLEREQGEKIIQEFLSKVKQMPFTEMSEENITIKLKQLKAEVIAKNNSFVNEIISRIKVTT

Chain of NKG2D (P26718 whole entry): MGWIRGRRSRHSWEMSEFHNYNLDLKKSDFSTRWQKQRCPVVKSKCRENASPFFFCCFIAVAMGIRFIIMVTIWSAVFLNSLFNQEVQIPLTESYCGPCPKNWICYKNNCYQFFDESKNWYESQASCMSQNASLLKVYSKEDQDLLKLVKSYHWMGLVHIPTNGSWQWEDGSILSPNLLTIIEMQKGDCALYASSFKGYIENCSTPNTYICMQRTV

For NKG2D (from UniProt P26718), the Kd is given as 132 nM.
